# Laboratory results published in patent US20240058446A1, “CHIMERIC TIM4 RECEPTORS AND USES THEREOF” (CERO THERAPEUTICS, INC., priority 2019, published 2024).
# B1: CTX137: Chimeric Tim4 receptor (SEQ ID NO:68): Tim4 binding domain, CD28 transmembrane, CD28 costimulatory, DAP12 signaling domain; expressed in T cells (protein)
# chain: MSKEPLILWLMIEFWWLYLTPVTSETVVTEVLGHRVTLPCLYSSWSHNSNSMCWGKDQCPYSGCKEALIRTDGMRVTSRKSAKYRLQGTIPRGDVSLTILNPSESDSGVYCCRIEVPGWFNDVKINVRLNLQRASTTTHRTATTTTRRTTTTSPTTTRQMTTTPAALPTTVVTTPDLTTGTPLQMTTIAVFTTANTCLSLTPSTLPEEATGLLTPEPSKEGPILTAESETVLPSDSWSSVESTSADTVLLTSKESKVWDLPSTSHVSMWKTSDSVSSPQPGASDTAVPEQNKTTKTGQMDGIPMSMKNEMPISQFWVLVVVGGVLACYSLLVTVAFIIFWVRSKRSRLLHSDYMNMTPRRPGPTRKHYQPYAPPRDFAAYRSYFLGRLVPRGRGAAEAATRKQRITETESPYQELQGQRSDVYSDLNTQRPYYK
# modifications: Tim4 binding domain-CD28 transmembrane-CD28 costimulatory signaling domain-DAP12 signaling domain; SIGNAL (1)..(24)
# notes: expressed in T cells
# B2: CTX143: Chimeric Tim4 receptor (SEQ ID NO:45): Tim4 binding domain, modified IgG4 hinge, CD28 transmembrane, CD28 costimulatory, DAP12 signaling domain (protein)
# chain: MSKEPLILWLMIEFWWLYLTPVTSETVVTEVLGHRVTLPCLYSSWSHNSNSMCWGKDQCPYSGCKEALIRTDGMRVTSRKSAKYRLQGTIPRGDVSLTILNPSESDSGVYCCRIEVPGWFNDVKINVRLNLQRASTTTHRTATTTTRRTTTTSPTTTRQMTTTPAALPTTVVTTPDLTTGTPLQMTTIAVFTTANTCLSLTPSTLPEEATGLLTPEPSKEGPILTAESETVLPSDSWSSVESTSADTVLLTSKESKVWDLPSTSHVSMWKTSDSVSSPQPGASDTAVPEQNKTTKTGQMDGIPMSMKNEMPISQESKYGPPCPPCPFWVLVVVGGVLACYSLLVTVAFIIFWVRSKRSRLLHSDYMNMTPRRPGPTRKHYQPYAPPRDFAAYRSYFLGRLVPRGRGAAEAATRKQRITETESPYQELQGQRSDVYSDLNTQRPYYK
# modifications: Tim4 binding domain-modified IgG4 hinge-CD28 transmembrane-CD28 costimulatory signaling domain-DAP12 signaling domain; SIGNAL (1)..(24)
# B3: CTX140: Chimeric Tim4 receptor (SEQ ID NO:44): Tim4 binding domain, CD28 hinge, CD28 transmembrane, CD28 costimulatory, DAP12 signaling domain (protein)
# chain: MSKEPLILWLMIEFWWLYLTPVTSETVVTEVLGHRVTLPCLYSSWSHNSNSMCWGKDQCPYSGCKEALIRTDGMRVTSRKSAKYRLQGTIPRGDVSLTILNPSESDSGVYCCRIEVPGWFNDVKINVRLNLQRASTTTHRTATTTTRRTTTTSPTTTRQMTTTPAALPTTVVTTPDLTTGTPLQMTTIAVFTTANTCLSLTPSTLPEEATGLLTPEPSKEGPILTAESETVLPSDSWSSVESTSADTVLLTSKESKVWDLPSTSHVSMWKTSDSVSSPQPGASDTAVPEQNKTTKTGQMDGIPMSMKNEMPISQIEVMYPPPYLDNEKSNGTIIHVKGKHLCPSPLFPGPSKPFWVLVVVGGVLACYSLLVTVAFIIFWVRSKRSRLLHSDYMNMTPRRPGPTRKHYQPYAPPRDFAAYRSYFLGRLVPRGRGAAEAATRKQRITETESPYQELQGQRSDVYSDLNTQRPYYK
# modifications: Tim4 binding domain-CD28 hinge-CD28 transmembrane-CD28 costimulatory signaling domain-DAP12 signaling domain; SIGNAL (1)..(24)
# How the values were obtained:
# [1] = tested on: JeKo-1 mantle cell lymphoma cells; test: Incucyte killing of ibrutinib pre-treated JeKo-1 mCherry+ cells by chimeric Tim4 receptor T cells; assay type: cell-based; settings: JeKo-1 pre-treated with 25 μM ibrutinib for 20 hours; 2:1 effector:target ratio; 0.5 μM ibrutinib present; FIG. 16
# Method: FIG. 16. Chimeric Tim4 receptor killing of ibrutinib pre-treated JeKo-1 cells. JeKo-1 mantle cell lymphoma cells engineered to express mCherry were pre-treated with 25 μM ibrutinib for 20 hours. T cells transduced with chimeric Tim4 receptor (CTX137) or CTX156 (tEGFR control) were co-cultured at a 2:1 effector:target ratio with JeKo-1 cells mCherry+ cells in the presence of 0.5 μM ibrutinib. Surviving JeKo-1 mCherry+ cells were counted every 2 hours and normalized to the count at 2 h. Wells were plated in duplicate. Error bars represent +/−SEM.
# Chimeric Tim4 receptor-T cells were generated from healthy donor PBMCs. CD4+ and CD8+ T cells were isolated and mixed at a 1:1 ratio, then stimulated overnight with TransACT. Activated T cells were transduced with 5MOI of the indicated construct (CTX137 or CTX156). Cells were used for Incucyte experiments 6 days after transduction. JeKo-1 cells engineered to express mCherry were treated with 25 μM BTK inhibitor ibrutinib for 20 hours then washed. T cells and target cells were incubated at a 2:1 effector:target ratio in the presence of 0.5 μM ibrutinib. Surviving JeKo-1 mChery+ cells were counted every 2 hours and normalized to the count at 2 hours. Wells were plated in duplicate.
# [2] = tested on: JeKo-1 mantle cell lymphoma cells; test: Incucyte co-culture of chimeric Tim4 receptor T cells with JeKo-1 mCherry+ cells; assay type: cell-based; settings: 1:1 E:T ratio; T cells transduced with 5MOI; FIG. 17
# Method: FIG. 17. Multiple chimeric Tim4 constructs eliminate ibrutinib treated JeKo-1 cells. T cells generated from healthy donor PBMCs were transduced with 5MOI of CTX137, CTX140, CTX143, or CTX156 (tEGFR control). Cells were cocultured at a 1:1 E:T ratio with Jeko-1 mCherry+ cells. Surviving Jeko-1 mCherry+ cells were counted every 2 hours and normalized to the count at 2 h. Wells were plated in duplicate. Error bars represent +/−SEM.
# Chimeric Tim4 receptor (CTX137, CTX140, or CTX143) modified T cells were generated from healthy donor PBMCs. CD4+ and CD8+ T cells were isolated and mixed at a 1:1 ratio, then stimulated overnight with TransACT. Activated T cells were transduced with 5MOI of the indicated construct. Cells were used for Incucyte experiments 6 days after transduction. JeKo-1 mCherry+ cells were plated with chimeric Tim4 receptor-T cells at a 1:1 effector:target (E:T) ratio. Surviving Jeko-1 mCherry+ cells were counted every 2 hours and normalized to the count at 2 h. Wells were plated in duplicate.
# Jeko-1 MCL tumor = test: JeKo-1 fLuc+ tumor model, chimeric Tim4 receptor T cells plus ibrutinib, bioluminescence imaging; assay type: in vivo; settings: NSG mice, 1e6 Jeko-1 fLuc+ i.v.; ibrutinib 125 mg/kg daily for 3 days, then 1e6 T cells i.v. and 8 mg/kg ibrutinib daily; FIG. 18
# Method: FIG. 18. […] NSG mice were inoculated i.v. with 1e6 Jeko-1 fLuc+ cells. 4 days after inoculation, mice were dosed daily with 125 mg/kg ibrutinib by oral gavage for 3 days. 7 days after inoculation, 1e6 chimeric Tim4 receptor-T cells were infused i.v. Following T cell infusion, mice were dosed daily with 8 mg/kg ibrutinib. N=10 mice per group. Chimeric Tim4 receptor-T cells were generated from healthy donor PBMCs. CD4+ and CD8+ T cells were isolated and mixed at a 1:1 ratio, then stimulated overnight with TransACT. Activated T cells were transduced with 5MOI of the indicated construct (CTX137, CTX140, or CTX156). Cells were used for Incucyte experiments 7 days after transduction. NSG mice were inoculated intravenously with 1e6 Jeko-1 fLuc+ cells. Mice were dosed with 125 mg/kg of Ibrutinib by oral gavage daily for 3 days, then transfused with 1e6 CER-T cells and dosed daily with 8 mg/kg Ibrutinib for the duration of the experiment. Tumor growth was monitored by bioluminescence imaging (BLI) (sum of photons from 8 sec exposure). n=10 for each group.
Molecule,killing of ibrutinib pretreated JeKo-1 cells (surviving mCherry+ cells normalized to count at 2 h) [1],elimination of JeKo-1 cells (surviving mCherry+ cells normalized to count at 2 h) [2],protection against JeKo-1 tumor (tumor growth by BLI) (Jeko-1 MCL tumor)
B1,induced killing,eliminate JeKo-1 mantle cell lymphoma cells,provide early protection
B2,–,eliminate JeKo-1 mantle cell lymphoma cells,–
B3,–,eliminate JeKo-1 mantle cell lymphoma cells,provide early protection
